Results from patent US6677124.

Legend:
[1] = target: monoclonal antibody BC203; experiment: competitive radioimmunoassay: unlabeled hBNP against 125I-labeled Tyr0-hBNP on BC203 (ascites BC203A diluted 42,000-fold), PEG precipitation
[2] = target: human brain natriuretic peptide (hBNP) (human); experiment: Scatchard plot from the hBNP standard curve of the radioimmunoassay
Chain of human brain natriuretic peptide (hBNP) (human) (peptide, as listed by the source): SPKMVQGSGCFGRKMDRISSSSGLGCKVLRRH

Chain of human brain natriuretic peptide (hBNP) (peptide): as the sequence (peptide, as listed by the source) above

90% inhibitory concentration [1] [ng/mL]	IC50 [1] [µg/mL]	Ka [2] [M⁻¹]	Substance
1.3	0.0118		human brain natriuretic peptide (hBNP)
		1.3e+09	monoclonal antibody BC203
